Experimental findings from publication PMC7004846 are described below.

The assay addresses Aquifex aeolicus VF5 Wzt carbohydrate-binding domain (residues 235-395), long construct (Aquifex aeolicus VF5). Nature of the assay: SEC. (In general: In gel filtration, larger molecules generally elute earlier.)

In general, stoichiometry N refers to a count of units in the complex or per binding partner. Consider “Aquifex aeolicus VF5 Wzt carbohydrate-binding domain (residues 235-395), long construct (domain or fragment)”, for which the stoichiometry N was found to be 2.
